This assay deals with SARS-CoV-2 spike (S) protein (SARS-CoV-2, UniProt P0DTC2). The experiment in a line: cell-based or functional assay.

Bounds are passed on as bounds.

Consider 1 molecule from PMC7840605, “3-Hydroxyphthalic Anhydride-Modified Chicken Ovalbumin as a Potential Candidate Inhibits SARS-CoV-2 Infection by Disrupting the Interaction of Spike Protein With Host ACE2 Receptor” (Frontiers in Pharmacology, 2020).

B1: chicken ovalbumin (natural protein)
chain: MGSIGAASMEFCFDVFKELKVHHANENIFYCPIAIMSALAMVYLGAKDSTRTQINKVVRFDKLPGFGDSIEAQCGTSVNVHSSLRDILNQITKPNDVYSFSLASRLYAEERYPILPEYLQCVKELYRGGLEPINFQTAADQARELINSWVESQTNGIIRNVLQPSSVDSQTAMVLVNAIVFKGLWEKAFKDEDTQAMPFRVTEQESKPVQMMYQIGLFRVASMASEKMKILELPFASGTMSMLVLLPDEVSGLEQLESIINFEKLTEWTSSNVMEERKIKVYLPRMKMEEKYNLTSVLMAMGITDVFSSSANLSGISSAESLKISQAVHAAHAEINEAGREVVGSAEAGVDAASVSEEFRADHPFLFCIKHIATNAVLFFGRCVSP
As to B1, the “IC50 against live SARS-CoV-2 in Vero E6 cells (CPE assay)” value is greater than 50 µM.
